# ± gives the uncertainty stated by the source.
# Test: protein stability index of a GFP-peptide fusion (yeast GPS) (PSI 1-4); higher = more stable; sorted into four equal gates, so the index is relative within each strain
# Procedure, shortened: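 Yeast carrying a pooled library were grown to mid-log phase in leucine-free medium. Each library plasmid expresses Cherry and has a tiled 17-residue yeast protein peptide fused downstream of GFP. Cells were sorted into four equal gates by GFP/Cherry ratio, and plasmids from each gate were PCR-amplified, Illumina-sequenced and assigned to strains by barcode. Summing, across gates, the read frequency times the gate number gave each peptide's protein stability index.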
Sequence,protein stability index (doa10∆),protein stability index (pdr5∆),protein stability index (san1∆),protein stability index (ubr1∆)
EPDREKIKLLTQATSED [RPC19],2.95 ± 0.2,3.19 ± 0.11,2.73 ± 0.12,3.28 ± 0.11
YISAELYAQLRENGLVP [SNU114],2.38 ± 0.068,2.21 ± 0.071,2.48 ± 0.1,2.73 ± 0.058
SLNYKFTTNKSKDVSRL [SRP21],3.13 ± 0.12,3.04 ± 0.088,3.08 ± 0.081,3.14 ± 0.072
VTLDFGNIFADLLPNSF [SMC2],2.8 ± 0.1,2.86 ± 0.067,3.07 ± 0.07,2.91 ± 0.064
FICTTFRTDMLQVADKF [SMC3],1.38 ± 0.086,2.31 ± 0.12,1.6 ± 0.089,1.67 ± 0.075
LKLLVKLYTFLARRTDA [RPL18A],2.26 ± 0.073,1.99 ± 0.056,1.75 ± 0.065,1.97 ± 0.059
VLKVYSMINNSNQAVGQ [SRB8],2.85 ± 0.07,2.78 ± 0.065,2.83 ± 0.067,2.63 ± 0.051
KDRIIDERTKEFEKKLQ [YIL149C/MLP2],3.23 ± 0.21,3.06 ± 0.19,2.94 ± 0.086,3.42 ± 0.1
GGLTKQIKEIKEVIELP [RPT6],3.74 ± 0.27,,3.48 ± 0.27,
IYINKSVPTNSADAPNP [RET1],3.19 ± 0.08,3.2 ± 0.061,3.31 ± 0.049,3.29 ± 0.052
EPLAIALSMGKSSAFVI [ARP7],1.48 ± 0.076,2.02 ± 0.071,1.67 ± 0.1,1.77 ± 0.089
TERVVEIGPSPTLAGMA [FAS2],2.501 ± 0.018,2.599 ± 0.017,2.496 ± 0.019,2.496 ± 0.012
QKTQELNAKYQSLGLDD [ISW2],3.31 ± 0.061,3.26 ± 0.048,3.17 ± 0.042,3.31 ± 0.052
QTDADRVKDPQWLIMLG [RIP1],3.19 ± 0.16,3.22 ± 0.11,,2.6 ± 0.12
TASDQLFGMCESLYEPN [PUP3],2.06 ± 0.059,2.12 ± 0.058,2.71 ± 0.084,1.83 ± 0.039
INSGTFVKVTKATLELL [RPL7A],3.01 ± 0.1,2.92 ± 0.092,2.65 ± 0.12,2.9 ± 0.12
CILRFLQLPIEDKFLYG [SWI3],1.85 ± 0.07,1.72 ± 0.085,1.18 ± 0.19,1.18 ± 0.077
GSIPSLTTQFVTDKYTA [YDL088C/ASM4],2.54 ± 0.08,2.54 ± 0.066,2.46 ± 0.087,2.58 ± 0.079
PNSGTATTGGFGANQAT [YGR119C/NUP57],2.12 ± 0.084,2.33 ± 0.07,2.12 ± 0.091,2.14 ± 0.067
YPEDKKTQQNEKSENGE [RPN3],,,3.22 ± 0.041,3.13 ± 0.12
LIAEESEDDSESGKVFI [RPB2],3.03 ± 0.23,3.63 ± 0.29,3.48 ± 0.29,
ITLRTSGELLQGIVRVY [MCD1],2.96 ± 0.075,2.9 ± 0.063,2.48 ± 0.066,3.12 ± 0.057
KVPDSTYDMVGGLTKQI [RPT6],2.27 ± 0.15,2.63 ± 0.17,1.93 ± 0.22,2.57 ± 0.077
AQLAKAKTELNEVSLAI [SMC2],3 ± 0.077,2.75 ± 0.074,1.82 ± 0.097,2.61 ± 0.046
AGEFGLKNKREIYRISF [RPS9B],2.56 ± 0.065,2.94 ± 0.091,3.08 ± 0.14,2.77 ± 0.066
ENFLKEVFQLRIFVKEI [GAL11],1.81 ± 0.073,1.69 ± 0.058,1.95 ± 0.063,1.52 ± 0.057
IKEDIEKFDLERVTALK [SMC1],3.63 ± 0.21,,3.41 ± 0.1,

Sequence,protein stability index (doa10∆),protein stability index (pdr5∆),protein stability index (san1∆),protein stability index (ubr1∆)
LEDLKNTKEIAVDLEHH [RRP6],2.66 ± 0.061,2.54 ± 0.047,2.48 ± 0.056,2.7 ± 0.038
FKGTDFVHSVKKFLRVR [SRB4],2.66 ± 0.077,2.64 ± 0.066,2.83 ± 0.058,2.87 ± 0.054
QNFENDFSLRYISNLLY [REC8],2.19 ± 0.074,2.29 ± 0.076,2.02 ± 0.11,2.06 ± 0.043
EGMFANANRVFRTRFQD [SMC2],2.26 ± 0.097,1.76 ± 0.089,2.68 ± 0.25,2.31 ± 0.078
RNSYPASFYSVNTEKKT [RPN3],3.4 ± 0.29,3.06 ± 0.13,2.82 ± 0.068,3.46 ± 0.14
NNETEQLKAEEKKILNQ [SMC1],3.11 ± 0.12,3.15 ± 0.17,3.13 ± 0.17,3.01 ± 0.11
LFDTYHASKAIGLPRHS [RRP6],2.15 ± 0.061,2.29 ± 0.06,2.34 ± 0.081,2.08 ± 0.071
LLISLNILFSLWKLLST [YLR018C/POM34],1.63 ± 0.071,1.25 ± 0.077,1.22 ± 0.21,1.18 ± 0.067
TSAKEPSENDVFYRMQQ [RPO31],3.08 ± 0.082,3.08 ± 0.092,3.13 ± 0.14,2.7 ± 0.099
LLSIPISCPLIGVIQLA [FAS1],1.23 ± 0.07,1.27 ± 0.068,1.23 ± 0.12,1.08 ± 0.064
VDIGGKQHAVLMLGSVN [RRP4],2.06 ± 0.052,2.66 ± 0.052,2.68 ± 0.06,2.6 ± 0.037
HCGALNGVVKKAAAGAG [RPO31],1.35 ± 0.27,2.38 ± 0.19,,
WQSGLKMYDYEEKEESN [RPN11],2.98 ± 0.13,3.26 ± 0.13,2.93 ± 0.1,3 ± 0.16
VTYSDVGGCKDQIEKLR [RPT1],3.51 ± 0.16,3.67 ± 0.2,2.92 ± 0.25,3.39 ± 0.12
VEDELTESIALSSMRFK [RRI1],3.21 ± 0.067,3.38 ± 0.051,3.21 ± 0.062,3.28 ± 0.051
PSRIFYKALRGMVSHKT [RPL16A],2.32 ± 0.1,1.27 ± 0.075,2.44 ± 0.14,1.82 ± 0.13
GDVSSGLFEKSTVSANH [BRN1],2.84 ± 0.12,3.31 ± 0.094,2.74 ± 0.11,
QFKSKEVEKAHPIRLYT [PRP8],3.17 ± 0.085,2.88 ± 0.056,2.71 ± 0.063,2.86 ± 0.06
KFANQLHDEYLVSMRYP [RPN3],2.35 ± 0.098,2.9 ± 0.07,2.43 ± 0.081,2.76 ± 0.074
KPMNKGQHKNNTSLNIN [SWP82],2.92 ± 0.092,2.84 ± 0.091,2.91 ± 0.066,2.98 ± 0.059
PKSKSLPNEMSQNDGFV [RPO31],3 ± 0.2,3.14 ± 0.14,3.38 ± 0.12,3.36 ± 0.11
KLVEIIWNDVVYGEGTS [YJL039C/NUP192],3.46 ± 0.11,3.26 ± 0.11,3.39 ± 0.098,3.35 ± 0.058
LEKTSRILNFFDKNTKT [YMR153W/NUP53],2.59 ± 0.08,3.09 ± 0.087,2.75 ± 0.089,2.7 ± 0.052
ARRTLQKLGLDETYKGV [RPL5],,2.97 ± 0.18,3.43 ± 0.14,
NSRGKFDDACNQIWNIA [SSN2],3.04 ± 0.15,3.01 ± 0.1,2.87 ± 0.12,3.09 ± 0.14
KLKQLLDESSEQKNTAK [YIL149C/MLP2],3.02 ± 0.11,3.22 ± 0.11,2.6 ± 0.17,2.99 ± 0.065

# — the supplement of paper PMC9732359
